Source: IntAct's records for PubMed 31515488

B1: Germ cell-less protein-like 1 (Homo sapiens), Q96IK5 (parent)
chain: MGSLSSRVLRQPRPALAQQAQGARAGGSARRPDTGDDAAGHGFCYCAGSHKRKRSSGSFCYCHPDSETDEDEEEGDEQQRLLNTPRRKKLKSTSKYIYQTLFLNGENSDIKICALGEEWSLHKIYLCQSGYFSSMFSGSWKESSMNIIELEIPDQNIDVEALQVAFGSLYRDDVLIKPSRVVAILAAACLLQLDGLIQQCGETMKETVNVKTVCGYYTSAGTYGLDSVKKKCLEWLLNNLMTHQNVELFKELSINVMKQLIGSSNLFVMQVEMDIYTALKKWMFLQLVPSWNGSLKQLLTETDVWFSKQRKDFEGMAFLETEQGKPFVSVFRHLRLQYIISDLASARIIEQDAVVPSEWLSSVYKQQWFAMLRAEQDSEVGPQEINKEELEGNSMRCGRKLAKDGEYCWRWTGFNFGFDLLVTYTNRYIIFKRNTLNQPCSGSVSLQPRRSIAFRLRLASFDSSGKLICSRTTGYQILTLEKDQEQVVMNLDSRLLIFPLYICCNFLYISPEKKN
partner: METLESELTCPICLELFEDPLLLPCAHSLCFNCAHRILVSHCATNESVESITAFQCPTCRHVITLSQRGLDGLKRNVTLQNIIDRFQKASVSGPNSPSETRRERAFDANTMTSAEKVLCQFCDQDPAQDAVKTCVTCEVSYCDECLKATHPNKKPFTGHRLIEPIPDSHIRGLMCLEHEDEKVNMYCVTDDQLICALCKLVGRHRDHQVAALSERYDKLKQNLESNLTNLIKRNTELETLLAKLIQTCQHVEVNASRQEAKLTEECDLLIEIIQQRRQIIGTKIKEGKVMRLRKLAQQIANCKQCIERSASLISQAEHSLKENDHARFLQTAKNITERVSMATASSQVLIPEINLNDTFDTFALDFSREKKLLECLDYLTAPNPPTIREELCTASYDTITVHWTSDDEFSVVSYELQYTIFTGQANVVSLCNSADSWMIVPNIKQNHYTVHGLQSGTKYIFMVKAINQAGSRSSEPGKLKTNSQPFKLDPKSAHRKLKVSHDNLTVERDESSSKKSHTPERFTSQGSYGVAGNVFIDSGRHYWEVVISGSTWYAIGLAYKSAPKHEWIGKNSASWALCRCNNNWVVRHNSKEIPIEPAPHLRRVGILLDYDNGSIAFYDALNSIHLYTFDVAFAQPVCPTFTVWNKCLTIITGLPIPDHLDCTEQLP
B2: Transmembrane protein 79 (Homo sapiens), Q9BSE2 (parent)
chain: MTEQETLALLEVKRSDSPEKSSPQALVPNGRQPEGEGGAESPGAESLRVGSSAGSPTAIEGAEDGLDSTVSEAATLPWGTGPQPSAPFPDPPGWRDIEPEPPESEPLTKLEELPEDDANLLPEKAARAFVPIDLQCIERQPQEDLIVRCEAGEGECRTFMPPRVTHPDPTERKWAEAVVRPPGCSCGGCGSCGDREWLRAVASVGAALILFPCLLYGAYAFLPFDVPRLPTMSSRLIYTLRCGVFATFPIVLGILVYGLSLLCFSALRPFGEPRREVEIHRRYVAQSVQLFILYFFNLAVLSTYLPQDTLKLLPLLTGLFAVSRLIYWLTFAVGRSFRGFGYGLTFLPLLSMLMWNLYYMFVVEPERMLTATESRLDYPDHARSASDYRPRPWG

Key:
tri18_human MID1, O15344 = variants of: B1; details: with tri18_human MID1, O15344
pspc_human SFTPC, P11686 = variants of: B2; details: with pspc_human SFTPC
Sequence of pspc_human SFTPC, P11686 (P11686 whole entry, looked up): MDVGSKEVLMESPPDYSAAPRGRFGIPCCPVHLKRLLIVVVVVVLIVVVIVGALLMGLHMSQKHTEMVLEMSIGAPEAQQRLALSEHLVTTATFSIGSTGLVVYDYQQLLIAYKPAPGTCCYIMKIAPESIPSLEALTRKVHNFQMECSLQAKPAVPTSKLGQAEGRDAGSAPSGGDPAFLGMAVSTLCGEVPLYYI

sarco_human SLN, O00631 = variants of: B2; details: with sarco_human SLN
[1] = variants of: B2; details: with sc22a_human SEC22A
[2] = variants of: B2; details: with tx264_human TEX264, Q9Y6I9
Sequence of tx264_human TEX264, Q9Y6I9 (Q9Y6I9 whole entry): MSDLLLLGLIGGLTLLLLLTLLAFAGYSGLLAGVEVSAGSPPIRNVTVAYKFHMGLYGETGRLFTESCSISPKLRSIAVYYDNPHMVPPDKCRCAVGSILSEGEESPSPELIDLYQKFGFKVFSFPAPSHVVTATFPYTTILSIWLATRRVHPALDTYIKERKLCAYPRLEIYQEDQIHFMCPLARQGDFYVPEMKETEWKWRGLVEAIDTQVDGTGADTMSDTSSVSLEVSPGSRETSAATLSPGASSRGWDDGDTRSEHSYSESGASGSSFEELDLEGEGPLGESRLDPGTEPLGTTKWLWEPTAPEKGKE

| Variant | effect of a mutation on the interaction (tri18_human MID1, O15344) | effect of a mutation on the interaction (pspc_human SFTPC, P11686) | effect of a mutation on the interaction (sarco_human SLN, O00631) | effect of a mutation on the interaction [1] | effect of a mutation on the interaction [2] |
| --- | --- | --- | --- | --- | --- |
| MGSLSSRVLRQPRPALAQQAQGARAGGSARRPDTGDDAAGHGFCYCAGSHKRKRSSGSFCYCHPDSETDEDEEEGDEQQRLLNTPRRKKLKSTSKYIYQTLFLNGENSDIKICALGEEWSLHKIYLCQSGYFSSMFSGSWKESSMNIIELEIPDQNIDVEALQVAFGSLYRDDVLIKPSRVVAILAAACLLQLDGLIQQCGETMKETVNVKTVCGYYTSAGTYGLDSVKKKCLEWLLNNLMTHQNVELFKELSINVMKQLIGSSNLFVMQVEMDIYTALKKWMFLQLVPSWNGSLKQLLTETDVWFSKQRKDFEGMAFLETEQGKPFVSVFRHLRLQYIVSDLASARIIEQDAVVPSEWLSSVYKQQWFAMLRAEQDSEVGPQEINKEELEGNSMRCGRKLAKDGEYCWRWTGFNFGFDLLVTYTNRYIIFKRNTLNQPCSGSVSLQPRRSIAFRLRLASFDSSGKLICSRTTGYQILTLEKDQEQVVMNLDSRLLIFPLYICCNFLYISPEKKN [I340V] | with no effect |  |  |  |  |
| MGSLSSRVLRQPRPALAQQAQGARAGGSARRPDTGDDAAGHGFCYCAGSHKRKRSSGSFCYCHPDSETDEDEEEGDEQQRLLNTPRRKKLKSTSKYIYQTLFLNGENSDIKICALGEEWSLHKIYLCQSGYFSSMFSGSWKESSMNIIELEIPDQNIDVEALQVAFGSLYRDDVLIKPSRVVAILAAACLLQLDGLIQQCGETMKETVNVKTVCGYYTSAGTYGLDSVKKKCLEWLLNNLMTHQNVELFKELSINVMKQLIGSSNLFVMQVEMDIYTALKQWMFLQLVPSWNGSLKQLLTETDVWFSKQRKDFEGMAFLETEQGKPFVSVFRHLRLQYIISDLASARIIEQDAVVPSEWLSSVYKQQWFAMLRAEQDSEVGPQEINKEELEGNSMRCGRKLAKDGEYCWRWTGFNFGFDLLVTYTNRYIIFKRNTLNQPCSGSVSLQPRRSIAFRLRLASFDSSGKLICSRTTGYQILTLEKDQEQVVMNLDSRLLIFPLYICCNFLYISPEKKN [K281Q] | with no effect |  |  |  |  |
| MTEQETLALLEVKRSDSPEKSSPQALVPNGRQPEGEGGAESPGAESLRVGSSAGSPTAIEGAEDGLDSTVSEAATLPWGTGPQPSAPFPDPPGWRDIEPEPPETEPLTKLEELPEDDANLLPEKAARAFVPIDLQCIERQPQEDLIVRCEAGEGECRTFMPPRVTHPDPTERKWAEAVVRPPGCSCGGCGSCGDREWLRAVASVGAALILFPCLLYGAYAFLPFDVPRLPTMSSRLIYTLRCGVFATFPIVLGILVYGLSLLCFSALRPFGEPRREVEIHRRYVAQSVQLFILYFFNLAVLSTYLPQDTLKLLPLLTGLFAVSRLIYWLTFAVGRSFRGFGYGLTFLPLLSMLMWNLYYMFVVEPERMLTATESRLDYPDHARSASDYRPRPWG [S104T] |  | with no effect | with no effect | with no effect | with no effect |
| MTEQETLALLEVKRSDSPEKSSPQALVPNGRQPEGEGGAESPGAESLRVGSSAGSPTAIEGAEDGLDSTVSEAATLPWGTGPQPSAPFPDPPGWRDIEPEPPESEPLTKLEELPEDDANLLPEKAARAFVPIDLQCIERQPQEDLIMRCEAGEGECRTFMPPRVTHPDPTERKWAEAVVRPPGCSCGGCGSCGDREWLRAVASVGAALILFPCLLYGAYAFLPFDVPRLPTMSSRLIYTLRCGVFATFPIVLGILVYGLSLLCFSALRPFGEPRREVEIHRRYVAQSVQLFILYFFNLAVLSTYLPQDTLKLLPLLTGLFAVSRLIYWLTFAVGRSFRGFGYGLTFLPLLSMLMWNLYYMFVVEPERMLTATESRLDYPDHARSASDYRPRPWG [V147M] |  | with no effect | with no effect | with no effect | with no effect |
| MTEQETLALLEVKRSDSPEKSSPQALVPNGRQPEGEGGAESPGAESLRVGSSAGSPTAIEGAEDGLDSTVSEAATLPWGTGPQPSAPFPDPPGWRDIEPEPPESEPLTKLEELPEDDANLLPEKAARAFVPIDLQCIERQPQEGLIVRCEAGEGECRTFMPPRVTHPDPTERKWAEAVVRPPGCSCGGCGSCGDREWLRAVASVGAALILFPCLLYGAYAFLPFDVPRLPTMSSRLIYTLRCGVFATFPIVLGILVYGLSLLCFSALRPFGEPRREVEIHRRYVAQSVQLFILYFFNLAVLSTYLPQDTLKLLPLLTGLFAVSRLIYWLTFAVGRSFRGFGYGLTFLPLLSMLMWNLYYMFVVEPERMLTATESRLDYPDHARSASDYRPRPWG [D144G] |  | with no effect | with no effect | with no effect | with no effect |

More lines, now with the values ahead:

| effect of a mutation on the interaction (tri18_human MID1, O15344) | effect of a mutation on the interaction (pspc_human SFTPC, P11686) | effect of a mutation on the interaction (sarco_human SLN, O00631) | effect of a mutation on the interaction [1] | effect of a mutation on the interaction [2] | Variant |
| --- | --- | --- | --- | --- | --- |
| with no effect |  |  |  |  | MGSLSSRVLRQPRPALAQQAQGARAGGSARRPDTGDDAAGHGFCYCAGSHKRKRSSGSFCYCHPDSETDEDEEEGDEQQRLLNTPRRKKLKSTSKYIYQTLFLNGENSDIKICALGEEWSLHKIYLCQSGYFSSMFSGSWKESSMNIIELEIPDQNIDVEALQVAFGSLYRDDVLIKPSRVVAILAAACLLQLDGLIQQCGETMKETVNVKTVCGYYTSAGTYGLDSVKKKCLEWLLNNLMTHQNVELFKELSINVMKQLIGSSNLFVMQVEMDIYTALKKWMFLQLVPSWNGSLKQLLTETDVWFSKQRKDFEGMAFLETEQGKPFVSVFRHLRLQYIISDLASARIIEQDAVVPSEWLSSVYKQQWFAMLRAEQDSEVGPQEINKEELEGNSMRCGRKLAKDGEYCWRWTGFNFGFDLLVTYTNRYIIFKRNTLNQPCSGSVSLQPQRSIAFRLRLASFDSSGKLICSRTTGYQILTLEKDQEQVVMNLDSRLLIFPLYICCNFLYISPEKKN [R449Q] |
| with no effect |  |  |  |  | MGSLSSRVLRQPRPALAQQAQGARAGGSARRPDTGDDAAGHGFCYCAGSHKRKRSSGSFCYCHPDSETDEDEEEGDEQQRLLNTPRRKKLKSTSKYIYQTLFLNGENSDIKICALGEEWSLHKIYLCQSGYFSSMFSGSWKESSMNIIELEIPDQNIDVEALQVAFGSLYRDDVLIKPSRVVAILAAACLLQLDGLIQQCGETMKETVNVKTVCGYYTSAGTYGLDSVKKKCLEWLLNNLMTHQNVELFKELSINVMKQLIGSSNLFVMQVEMDIYTALKKWMFLQLVPSWNGSLKQLLTETDVWFSKQRKDFEGMAFLETEQGKPFVSVFRHLRLQYIISDLASARIIEQDAVVPSEWLSSVYKQQWFAMLRAEQDSEVGPQEINKEELEGNSMRCGRKLAKDGEYCWRWTGFNFGFDLLVTYTNRYIIFKRNTLNQPCSGSVSLQPRRSIAFRLHLASFDSSGKLICSRTTGYQILTLEKDQEQVVMNLDSRLLIFPLYICCNFLYISPEKKN [R457H] |
